Assay results taken from doi:10.1101/2023.11.05.565221, “Evolutionary origin and structural ligand mimicry by the inserted domain of alpha-integrin proteins” (bioRxiv, 2023).

Target: T1, wildtype αEβ7 ectodomain (human, UniProt P38570 19-1123; P26010 20-723, N-linked glycan at N303 (N321 in the legend of Figure 4))
T1 construct: signal peptide in the construct; integrin alpha-E (CD103) ectodomain, M1-H1123 (limits count on the precursor); integrin beta-7 ectodomain, M1-H723 (limits count on the precursor); Wild-type αE construct 'used for integrin:e-cadherin complex'; The αEβ7 of the BLI assay is not specified; also called integrin αEβ7; source: ExpiCHO cells, α and β co-transfected, secreted, purified (HisTrap, SEC)
Test: BLI; Octet Red, 25°C; Fc-tagged E-cadherin ectodomain loaded on Protein A biosensors; αEβ7 500nM to 16.125nM in activating buffer with 0.1% BSA and 0.02% Tween-20; 1:1 model, global fit of three replicates
Conditions: both partners purified

T1 sequence (P38570 19-1123, chain 1 of 2): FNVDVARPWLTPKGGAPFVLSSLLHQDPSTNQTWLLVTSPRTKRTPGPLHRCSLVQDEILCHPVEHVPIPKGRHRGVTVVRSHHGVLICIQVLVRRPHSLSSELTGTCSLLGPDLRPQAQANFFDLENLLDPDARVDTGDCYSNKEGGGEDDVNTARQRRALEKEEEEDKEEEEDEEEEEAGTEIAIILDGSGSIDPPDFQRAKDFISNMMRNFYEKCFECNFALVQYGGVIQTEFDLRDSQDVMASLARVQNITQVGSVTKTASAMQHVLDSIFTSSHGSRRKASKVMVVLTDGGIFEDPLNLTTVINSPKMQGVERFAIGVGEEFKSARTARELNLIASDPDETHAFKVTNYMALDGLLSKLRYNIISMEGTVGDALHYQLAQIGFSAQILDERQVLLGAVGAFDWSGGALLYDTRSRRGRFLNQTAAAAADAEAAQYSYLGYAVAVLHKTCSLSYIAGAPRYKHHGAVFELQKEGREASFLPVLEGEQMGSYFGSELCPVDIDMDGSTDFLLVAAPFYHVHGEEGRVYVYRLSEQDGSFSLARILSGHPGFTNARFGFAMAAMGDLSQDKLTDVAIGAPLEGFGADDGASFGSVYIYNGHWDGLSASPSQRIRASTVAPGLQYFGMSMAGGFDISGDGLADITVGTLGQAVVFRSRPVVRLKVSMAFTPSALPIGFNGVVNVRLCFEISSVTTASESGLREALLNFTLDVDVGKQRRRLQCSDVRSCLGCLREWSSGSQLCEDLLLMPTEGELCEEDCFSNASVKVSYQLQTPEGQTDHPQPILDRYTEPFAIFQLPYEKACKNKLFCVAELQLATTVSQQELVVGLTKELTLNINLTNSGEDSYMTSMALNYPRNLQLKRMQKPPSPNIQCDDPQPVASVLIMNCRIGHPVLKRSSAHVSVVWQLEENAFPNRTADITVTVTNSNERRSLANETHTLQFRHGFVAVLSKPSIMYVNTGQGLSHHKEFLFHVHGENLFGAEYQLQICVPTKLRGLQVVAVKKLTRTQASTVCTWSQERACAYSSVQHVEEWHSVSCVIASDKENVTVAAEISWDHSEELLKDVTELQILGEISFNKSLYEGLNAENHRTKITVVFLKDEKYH
T1 sequence (P26010 20-723, chain 2 of 2): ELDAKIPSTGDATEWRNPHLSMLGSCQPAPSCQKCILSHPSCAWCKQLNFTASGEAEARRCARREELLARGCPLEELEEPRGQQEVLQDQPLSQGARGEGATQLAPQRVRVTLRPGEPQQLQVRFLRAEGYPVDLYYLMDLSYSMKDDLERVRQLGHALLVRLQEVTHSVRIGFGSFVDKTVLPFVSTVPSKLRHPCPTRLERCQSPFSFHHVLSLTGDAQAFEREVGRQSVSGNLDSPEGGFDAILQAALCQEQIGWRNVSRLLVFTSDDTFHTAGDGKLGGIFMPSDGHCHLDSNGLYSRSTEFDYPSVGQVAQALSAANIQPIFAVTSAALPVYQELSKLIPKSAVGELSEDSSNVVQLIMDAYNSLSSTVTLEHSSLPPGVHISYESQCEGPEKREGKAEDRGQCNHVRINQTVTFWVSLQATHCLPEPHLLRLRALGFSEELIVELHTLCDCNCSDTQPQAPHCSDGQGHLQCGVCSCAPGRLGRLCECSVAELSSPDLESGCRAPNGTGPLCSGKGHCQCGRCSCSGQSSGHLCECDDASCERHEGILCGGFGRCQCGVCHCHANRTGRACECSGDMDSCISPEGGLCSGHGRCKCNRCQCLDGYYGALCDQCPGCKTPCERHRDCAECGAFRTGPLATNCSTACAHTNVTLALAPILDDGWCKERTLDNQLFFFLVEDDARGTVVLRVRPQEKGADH

Kd: 51 ± 7.9 nM
B1: Fc-tagged E-cadherin ectodomain (Fc fusion, UniProt P12830 155-698, looked up)
chain: DWVIPPISCPENEKGPFPKNLVQIKSNKDKEGKVFYSITGQGADTPPVGVFIIERETGWLKVTEPLDRERIATYTLFSHAVSSNGNAVEDPMEILITVTDQNDNKPEFTQEVFKGSVMEGALPGTSVMEVTATDADDDVNTYNAAIAYTILSQDPELPDKNMFTINRNTGVISVVTTGLDRESFPTYTLVVQAADLQGEGLSTTATAVITVTDTNDNPPIFNPTTYKGQVPENEANVVITTLKVTDADAPNTPAWEAVYTILNDDGGQFVVTTNPVNNDGILKTAKGLDFEAKQQYILHVAVTNVVPFEVSLTTSTATVTVDVLDVNEAPIFVPPEKRVEVSEDFGVGQEITSYTAQEPDTFMEQKITYRIWRDTANWLEINPDTGAISTRAELDREDFEHVKNSTYTALIIATDNGSPVATGTGTLLLILSDVNDNAPIPEPRTIFFCERNPKPQVINIIDADLPPNTSPFTAELTHGASANWTIQYNDPTQESIILKPKMALEVGDYKINLKLMDNQNKDQVTTLEVSVCDCEGAAGVCRKA
notes: E-cadherin ectodomain, D155-A698 (limits count on the precursor); Held on Protein A biosensors by the Fc; source: ExpiCHO cells, secreted, purified (HiTrap Protein G, SEC); not shown: Fc (human), C-terminal, kept
